Patent US20220372114A1 (published 2022)

The binders below were run against SARS-CoV-2 (WIV02 isolate) prefusion stabilized spike trimer protein (UniProt P0DTC2 14-1213) (assay: ELISA).

Row | Binder | IC50 [nM]
1 | 4-L4-A (antibody, V domains shown) VH: QAYLQQSGAELVRPGASVKMSCKASGYTFTSYTVHWVKQTPRQGLEWIGGIYPGNVDTSYNQNFKGKATLTVDKSSSTAYMQLSSLTSEDSAVYFCARDGYYAMDYWGQGTSVTVSS VL: not shown | 8.34
2 | 2-O12-A (antibody, V domains shown) VH: EVQLQQSGPELVKPGASVKISCKASGYTFTDYYMNWVKQSHGKSLEWIGDINSNNGGTTYDQKFKGKATLTVDRSSSTAYMELRSLTSEDSAVYYCARRGDGHFGGFTYWGQGTLVTVSA VL: not shown | 14.9
3 | 3-E2-A (antibody, V domains shown) VH: EVQLQQSGPELVKPGASVKISCKASGYTFTDYYMNWVKQSHGKSLEWIGDINPNNGGTSYTQKFKGKATLTVDKSSSKAYMELRSLTSEDSAVYYCARRGDGHYGGFTYWGQGTLVTVSA VL: not shown | 18.4
4 | 9-F6-A (antibody, V domains shown) VH: EVQLQQSGPELVKPGASVKMSCKASGYTFTSYIMHWVKQKPGQGLEWIGYILPYNDGTKYNEKFKGKATLTSDKSSSTAYMELRSLTSEDSAVYYCARWGYSNFLDSWGQGTTLTVSS VL: DIQMTQTTSSLSASLGDRVTISCRASQDINNYLNWYQQKPDGTVKLLIYYTSRLHSGVPSRFSGSGSGTDYSLTIRNLEQEDIATYFCQQGNTLPPTFGGGTKLEIK | 16.7
5 | 4-M3-A (antibody, V domains shown) VH: EVQLQQSGPELVKPGDSVKISCKASGYSFTGYFMNWVMQSHGKSLEWIGRINPNNGETFYNQKFKGKATLTVDKSSDTAHMELRSLTSEDSAVYYCARGGTGTGWGQGTTLTVSS VL: DILMTQSPSSMSVSLGDTVSITCHASQGISSNIGWLQQKPGKSFKGLIYYGTNLEDGVPSRFSGSGSGADYSLTISSLESEDLADYYCIQYAQFPYTFGGGTKLEIK | 7.36
6 | 4-N22-A (antibody, V domains shown) VH: QVQLQQPGTELVKPGASVKLSCKASGYTFTNYWMYWVKQRPGQGLDWIGNINPSNGGTNYNEKFKSKATLTVDKSSSTAYMQLSSLTSEDSAVYYCARETGNYWGQGTTLTVSS VL: DILMTQSPSSMSVSLGDTVSISCHASQGISSNIGWLQQKPGKSFKGLIYHGTNLEDGVPSRFSGSGSGADYSLTISSLESEDFADYYCVQYAQFPYTFGGGTKLEIK | 4.93
7 | 8-H5-A (antibody, V domains shown) VH: QVTLKESGPGILQSSQTLSLTCSLSGFSLSTSGMGVSWVRQPSGKGLEWLAHIYWDDDKRYTPSLKSRLTISTDSSRKQVFLKITSVDTADTATYYCARRDLHDYDGWFAYWGQGTLVTVSA VL: DIVMTQSQKFMSTAVGDRVSVTCKASQNVGTNVAWYQQKPGQSPKALIYSASFRYSGVPDRFSGSGSGTDFTLTISNVQSEDLAEYFCQQYNSYPLTFGSGTKLEIK | 12.8
8 | 1-L10-A (antibody, V domains shown) VH: EVKLEESGGGLVQPGGSMKLSCVASGFTFNNYWMNWVRQSPEKGLEWVAQMRLKSDNYATHYAESVKGRFTISRDDSKSSVYLQMNNLRAEDTGIYYCIEGYWTYWGQGTLVTVSA VL: QIVLTQSPAIMSASLGERVTMTCTASSSVSSSYLHWYQQKPGSSPKLWIYSTSNLASGVPARFSGNGSGTSYSLTISSMEAEDAATYYCLQYHRSPPYTFGGGTKLEIK | 8.65
9 | 6-O12-A (antibody, V domains shown) VH: QVQLQQPGTELVKPGASVKLSCKASGYTFTSYWMHWVKQRPGQGLEWIGNINPSNGGTNYNEKFRSKATLTVDKSSSTAYMQLSSLTSEDSAVYYCARLGWFLPLGSWGQGTTLTVSS VL: QIVLTQSPAIMSASLGEVITLTCSASSSVSYMHWYQQKSGTSPKLLIYSTSNLASGVPSRFSGSGSGTFYSLTISSVEAEDAADYYCHQWSGYMYTFGGGTKLEIK | 7.62
10 | 3-P7-A (antibody, V domains shown) VH: QAYLQQSGAELVRPGASVKMSCKASGYTFTSYSMHWVKQTPRQGLEWIGAIYPGNDDTSYNQKFKGKATLTVDKSSSTAYMQLSSLTSEDSAVYFCTRDYTNYPFDYWGQGTTLTVSS VL: DIVLTQSPASLPVSLGQRATISCRASKSVSTSGYSYMHWYQQRPGQPPKLLIYLASNLESGVPARFSASGSGTDFTLNIHPVEEEDAATYYCQHSRELPPTFGGGTKVEIK | 8.86
11 | 2-G20-A (antibody, V domains shown) VH: EVQLQQSGPELVKPGASVKMSCKASGYTFPSYVLHWVKQKPGQGLEWIGYIYPYNDGTNYNEKFKGKATLTSDKSSSTAYMELSSLTSEDSAVYYCARGDYGDSAWFPYWGQGTLVTVSA VL: DIVLTQSPASLAVSLGQRATISCRASKSVSTSGYSYMHWYQQKPGQPPKLLIYLASNLKSGVPARFSGGGSGTDFTLNIHPVEEEDAATYYCQLSRELPWTFGGGTKLEIK | 18.3
12 | 10-O24-A (antibody, V domains shown) VH: QAYLQQSGAELVRPGASVKMSCKASGYTFTSYSMHWVKQTPRQGLEWIGAIYPGNDDTSYNQKFKGKATLTVDRSSSTAYMQLSSLTSEDSAVYFCTRDYSNYPFDYWGQGTTLTVSS VL: DIVLTQSPASLAVFLGQRATISCRASKSVSTSGYSYMHWYQQRPGQPPKLLIYLASNLESGVPARFSGSGSGTDFTLNIHPVEEEDAATYYCQHSRELPPTFGGGTKLEIK | 5.84
13 | 9-K4-A (antibody, V domains shown) VH: QAYLQQSGAELVRPGASVKMSCKASGYTFPNYSFHWVKQTPRQGLEWIGAIYPGNDDTSYNQRFKGKATLTVDKSSSTAYMQLSSLTSEDSAVYFCARDYSNYPFDCWGQGTTLTVSS VL: DIVLTQSPASLAVSLGQRATISCRASKSVSTSGYSYMHWYQQKPGQPPKLLIYLASNLESGVPARFSGSGSGTDFTLNIHPVEEEDAATYYCQHSRELPPTFGGGTKLEIK | 72.6
14 | 2-H7-A (antibody, V domains shown) VH: QAYLQQSGAELVRPGASVKMSCKASGYTFTGYTMHWVKQTPRQGLEWIGAIYPENGDTSYNQKFKGKATLTVDKSSSTAYMQLSSLTSEDSAVYFCARDGYDVLYGMDYWGQGTSVTVSS VL: DIVLTQSPASLAVSLGQRATISCRASKSVSTSGYSYMHWYQQKPGQPPKLLIYLASNLESGVPARFSGSGSGTDFTLNIHPVEEEDAATYYCQHSRELPWTFGGGTKLDIK | 7.21
15 | 8-L17-A (antibody, V domains shown) VH: EVQLVESGGGLVQPKGSLKLSCAASGFTFNTYAMHWVRQAPGKGLEWVARIRSKSSNYARYYADSVKDRFTISRDDSQSMLYLQMNNLKTEDTAMYYCVRDHDYYGSSYWFAYWGQGTLVTVSA VL: DVVMTQTPLSLPVSLGDQASISCRSSQSLVHNNGNTYLHWYLQKPGQSPKLLIYKVSNRFSGVPDRFSGSGSGTDFTLKISRVEAEDLGVYFCSQSTHVPWTFGGGTKLEIK | 60.8
16 | 8-H3-A (antibody, V domains shown) VH: EVQLVESGGGLVQPKGSLKLSCAASGFTFNTYAMHWVRQAPGKGLEWVARIRSKSSNYATYYADSVKDRFTISRDDSQSMLYLQMNNLKTEDTAMYYCVRDHDYYGSSYWFTYWGQGTLVTVSA VL: DVVMTQTPLSLPVSLGDQASISCRSSQSLVHDNGNTYLHWFLQKPGQSPKLLIYKVSNRFSGVPDRFSGSGSGTDFTLKISRVETEDLGVYFCSQSTHVPWTFGGGTKLEIK | 19.4

What follows are binders tested against SARS-CoV-1 Spike (SARS-CoV-1, UniProt P59594 14-1195) (assay: ELISA).

Row | Binder | IC50 [nM]
17 | 8-A17-A (antibody, V domains shown) VH: QVQLKESGPGLVAPSQSLSITCTVSGFSLTSYAISWVRQPPGKGLEWLGVVWPGGGTNYNSALKSRLSINKDNSKSQVFLKMNSLQTDDTGRYYCARTGYHFDYWGQGTTLTVSS VL: QIVLTQSPAIMSASPGEKVTMTCSVSSSVSYMHWYQQKSGTSPKRWIYDTSKLASGVPARFSGSGSGTSYSLTISSMEAEDAATYYCQQWSSNPPMYTFGGGTKLEIK | 5.1
18 | 1-B11-A (antibody, V domains shown) VH: QVQLQQSGPELVKPGASVKISCKASGYTFTDHYINWVKQRPGQGLEWIGWIFPGSGSTYYNEQFKGKATLTVDKSSNTAYMLLSSLTSEDSAVYFCARSGGLRLGFAYWGQGTLVTVSA VL: DIQMTQTTSSLSASLGDRVTISCRASQDISNYLNWYQQKPDGTVKLLIYYTSRLHSGVPSRFSGSGSGTDYSLTISNLEQEDISTYFCQQVNTLPYTFGGGTKLEIK | 20.9
19 | 10-B13-A (antibody, V domains shown) VH: QVQLQQSGAELVKPGASVKISCKASGYAFSNYWMNWVKQRPGKGLEWIGQIYPGDGDTNYNGNFKGKATLTADKSSSTAYIQLSSLTSEDSAVYFCGRGFIATVVEVFDHWGLGTTLTVSS VL: DIQMTQTTSSLSASLGDRVTISCRASQDISNYLNWYQQKPDGTVKLLIYYTSRLQSGVPSRFSGSGTGTDYSLTISNLEQEDIATYFCQQGNTLPWTFGGGTKLEIK | 19.4
20 | 9-F6-A (antibody, V domains shown) VH: EVQLQQSGPELVKPGASVKMSCKASGYTFTSYIMHWVKQKPGQGLEWIGYILPYNDGTKYNEKFKGKATLTSDKSSSTAYMELRSLTSEDSAVYYCARWGYSNFLDSWGQGTTLTVSS VL: DIQMTQTTSSLSASLGDRVTISCRASQDINNYLNWYQQKPDGTVKLLIYYTSRLHSGVPSRFSGSGSGTDYSLTIRNLEQEDIATYFCQQGNTLPPTFGGGTKLEIK | 5.55
21 | 1-L10-A (antibody, V domains shown) VH: EVKLEESGGGLVQPGGSMKLSCVASGFTFNNYWMNWVRQSPEKGLEWVAQMRLKSDNYATHYAESVKGRFTISRDDSKSSVYLQMNNLRAEDTGIYYCIEGYWTYWGQGTLVTVSA VL: QIVLTQSPAIMSASLGERVTMTCTASSSVSSSYLHWYQQKPGSSPKLWIYSTSNLASGVPARFSGNGSGTSYSLTISSMEAEDAATYYCLQYHRSPPYTFGGGTKLEIK | 7.5
22 | 6-O12-A (antibody, V domains shown) VH: QVQLQQPGTELVKPGASVKLSCKASGYTFTSYWMHWVKQRPGQGLEWIGNINPSNGGTNYNEKFRSKATLTVDKSSSTAYMQLSSLTSEDSAVYYCARLGWFLPLGSWGQGTTLTVSS VL: QIVLTQSPAIMSASLGEVITLTCSASSSVSYMHWYQQKSGTSPKLLIYSTSNLASGVPSRFSGSGSGTFYSLTISSVEAEDAADYYCHQWSGYMYTFGGGTKLEIK | 5.4
23 | 2-G20-A (antibody, V domains shown) VH: EVQLQQSGPELVKPGASVKMSCKASGYTFPSYVLHWVKQKPGQGLEWIGYIYPYNDGTNYNEKFKGKATLTSDKSSSTAYMELSSLTSEDSAVYYCARGDYGDSAWFPYWGQGTLVTVSA VL: DIVLTQSPASLAVSLGQRATISCRASKSVSTSGYSYMHWYQQKPGQPPKLLIYLASNLKSGVPARFSGGGSGTDFTLNIHPVEEEDAATYYCQLSRELPWTFGGGTKLEIK | 6.65
24 | 2-P2-A (antibody, V domains shown) VH: EVQLQQSGAELVRPGSSVKMSCKTSGYTFTSYGINWVKQRPGQGLEWIGYIYIGNGYTEYNEKFKGKATLTSDTSSSTAYMQLSSLTSEDSAIYFCARGGVDYWGQGTTLTVSS VL: DVLMTQTPLSLPVSLGDQASISCRSSQSIVHSNGNTYLEWYLQKPGQSPKLLIYKVSNRFSGVPDRFSGSGSGTDFTLKISRVEAEDLGVYYCFQGSHVPYTFGGGTKLEIK | 17.9
